How the values were obtained:
FasL (Tebu-bio) = molecular target: T1, FasL (Tebu-bio) (UniProt P48023 134-281, limits assumed); test: ELISA, coated antigen 100 ng/mL
T1 construct: Bought reagent coated at 100 ng/mL
T1 sequence (looked up): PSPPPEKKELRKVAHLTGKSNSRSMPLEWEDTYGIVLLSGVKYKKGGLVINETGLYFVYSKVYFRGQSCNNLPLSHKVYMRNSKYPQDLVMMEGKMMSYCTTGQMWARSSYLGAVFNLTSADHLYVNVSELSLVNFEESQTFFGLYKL

[1] = molecular target: T2, recombinant TRAIL (R&D Systems) (UniProt P50591 114-281); test: ELISA, coated antigen 100 ng/mL
T2 construct: Bought reagent, used coated in the ELISA and soluble at 100 ng/mL on H4 cells; also called Apo2L; TRAIL ligand

Fas (R&D Systems) = molecular target: T3, Fas (R&D Systems) (UniProt P25445 26-173, limits assumed); test: ELISA, coated antigen 50 ng/mL
T3 construct: Bought reagent coated at 50 ng/mL
T3 sequence (looked up): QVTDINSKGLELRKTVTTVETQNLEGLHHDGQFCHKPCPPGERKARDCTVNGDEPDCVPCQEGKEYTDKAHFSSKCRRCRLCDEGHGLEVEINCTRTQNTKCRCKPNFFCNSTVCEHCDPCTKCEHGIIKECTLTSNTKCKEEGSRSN

DcR2 (R&D Systems) = molecular target: T4, DcR2 (R&D Systems) (UniProt Q9UBN6 56-211, limits assumed); test: ELISA, coated antigen 50 ng/mL
T4 construct: Bought reagent coated at 50 ng/mL; also called TRAIL-R4
T4 sequence (looked up): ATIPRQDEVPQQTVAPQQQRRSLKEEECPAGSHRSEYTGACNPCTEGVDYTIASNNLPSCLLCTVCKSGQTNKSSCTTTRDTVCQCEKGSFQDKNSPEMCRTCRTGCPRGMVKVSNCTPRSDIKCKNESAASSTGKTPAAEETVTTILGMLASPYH

DcR1 (R&D Systems) = molecular target: T5, DcR1 (R&D Systems) (UniProt O14798 26-221, limits assumed); test: ELISA, coated antigen 50 ng/mL
T5 construct: Bought reagent coated at 50 ng/mL; also called TRAIL-R3
T5 sequence (looked up): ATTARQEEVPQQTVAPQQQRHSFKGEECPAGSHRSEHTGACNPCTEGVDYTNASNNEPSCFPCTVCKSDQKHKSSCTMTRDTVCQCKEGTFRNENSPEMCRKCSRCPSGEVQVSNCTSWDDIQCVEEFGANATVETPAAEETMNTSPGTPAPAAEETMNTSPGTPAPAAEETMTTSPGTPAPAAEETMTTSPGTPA

DR4 (R&D Systems) = molecular target: T6, DR4 (R&D Systems) (UniProt O00220 24-239, limits assumed); test: ELISA, coated antigen 50 ng/mL
T6 construct: Bought reagent coated at 50 ng/mL; also called TRAIL-R1

Measured: binding result

B1: mDR5-01 (antibody, V domains shown)
VH: EVQLQQSGAEFVKPGASVKLSCTASGFNIKDTFIHWVKQRPEQGLDWIGRIDPANGNTKYDPKFQGKATETTDTSSNTAYLQLSSLTSEDTAVYYCVRGLYTYYFDYWGQGTSVTVSS
VL: DIVLTQSPATLSVTPGDSVSLSCRASQSISNNLHWYQQKSHESPRLLIKFASQSISGIPSRFSGSGSGADFTLIINSVETEDFGMYFCQQGNSWPYTFGGGTKLEIK
no binding (tested: 1 µg/mL): all assays above

B2: mDR5-05 (antibody, V domains shown)
VH: EVQLQQSGAELVKPGASVKLFCTASGFNIKDTHIHWVKQRPEQGLEWIGRIDPANGNTEYDPKFQGKATIRVDTSSDTAYLQLSSLTSEDTAVHYCARWGTNVYFAYWGQGTSVTVSS
VL: DIQLTQSPAIMSASPGEKVTISCSASSSVSYMYWYQQKPGSSPKPWIYRTSNLASGVPGRFSGSGSGTSYSLTISSMEAEDAATYYCQQYHSYPPTFGGGTKLEIK
notes: mouse IgG1 is implied
no binding (tested: 1 µg/mL): all assays above
